The assay has as its target T1, recombinant human His6-tagged annexin A2 (human, UniProt P07355 1-339).
T1 construct: annexin A2, human, recombinant; No catalogue number is printed; also called His6-AnxA2; His6-tagged AnxA2; source: bought: Novus Biologicals
As to the kind of experiment: pull-down; about 20 µg concentrated culture supernatant (SPI-2 inducing conditions) mixed with 5 µg His6-annexin A2 overnight at 4 °C; Ni-Sepharose beads 2 h at room temperature; four washes in TBS-T (20 mM Tris-HCl, 150 mM NaCl, 0.75% Triton X-100); Western blot with anti-HA and anti-AnxA2; densitometry of 3 blots, with AnxA2 over without AnxA2. As to conditions: one partner purified. Background: In western blotting, separated proteins are transferred to a membrane and probed.

T1 sequence (P07355 whole entry): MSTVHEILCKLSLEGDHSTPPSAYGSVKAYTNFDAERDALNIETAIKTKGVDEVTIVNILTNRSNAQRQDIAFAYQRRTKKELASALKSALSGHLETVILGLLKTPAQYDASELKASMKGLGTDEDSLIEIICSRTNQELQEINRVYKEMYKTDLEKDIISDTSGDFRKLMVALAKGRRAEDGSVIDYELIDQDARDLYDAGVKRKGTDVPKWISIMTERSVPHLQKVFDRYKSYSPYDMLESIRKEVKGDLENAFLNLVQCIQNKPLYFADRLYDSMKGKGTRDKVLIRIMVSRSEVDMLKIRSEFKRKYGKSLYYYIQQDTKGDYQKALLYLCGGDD

B1: SopD2-2HA (natural protein)
chain: MPVTLSFGNRHNYEINHSRLARLMSPDKEEALYMGVWDRFKDCFRTHKKQEVLEVLYTLIHGCERENQAELNVDITGMEKIHAFTQLKEYANPSQQDRFVMRFDMNQTQVLFEIDGKVIDKCNLHRLLNVSENCIFKVMEEDEEELFLKICIKYGEKISRYPELLEGFANKLKDAVNEDDDVKDEVYKLMRSGEDRKMECVEWNGTLTEEEKNKLRCLQMGSFNITTQFFKIGYWELEGEVLFDMVHPTLSYLLQAYKPSLSSDLIETNTMLFSDVLNKDYDDYQNNKREIDAILRRIYRSHNNTLFISEKSSCRNMLI
notes: SopD2, T3SS2-secreted effector of Salmonella enterica serovar Typhimurium SL1344, under its native promoter in pACYC184; also called pSopD2-2HA; source: S. Typhimurium SL1344 T3SS2+ ΔsopD2 carrying pSopD2-2HA: translocated into infected HeLa cells, in lysate; secreted under SPI-2 inducing conditions (LPM pH 5.8), concentrated culture supernatant; not shown: 2xHA (tandem HA), C-terminal, kept
Consider B1, for which the “fold change of effector pulled down with AnxA2 over without AnxA2” value came out at 12.3 fold.

These data come from article PMC8655068, “Quantitative proteomic screen identifies annexin A2 as a host target for Salmonella pathogenicity island-2 effectors SopD2 and PipB2” (Scientific Reports, 2021).
